{"source": "patent US20210139574A1", "biological_target": "Tau seeds: brain fraction from transgenic mice expressing human Tau P301S (human), P10636", "sequence (P10636 other isoform, or with tags, fused parts or gaps P301S P301S)": "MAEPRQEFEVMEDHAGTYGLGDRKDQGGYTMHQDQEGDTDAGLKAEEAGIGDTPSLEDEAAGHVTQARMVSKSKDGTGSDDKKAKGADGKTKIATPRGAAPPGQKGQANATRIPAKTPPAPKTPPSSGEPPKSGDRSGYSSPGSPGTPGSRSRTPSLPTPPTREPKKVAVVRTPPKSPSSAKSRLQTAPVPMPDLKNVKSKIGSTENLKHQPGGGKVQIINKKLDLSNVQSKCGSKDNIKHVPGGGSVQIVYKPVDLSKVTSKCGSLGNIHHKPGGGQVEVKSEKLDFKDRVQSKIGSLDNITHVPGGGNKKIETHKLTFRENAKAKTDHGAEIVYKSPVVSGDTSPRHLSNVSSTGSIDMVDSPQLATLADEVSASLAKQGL", "test": "cell-based or functional assay", "data": [{"binder": "AB1 having a murinised VL of SEQ ID NO: 9 and a murinised VH of SEQ ID NO.: 10 (antibody, V domains shown) VL: DVVMTQSPASLAVSLGQRATISCQASQSVSSYLAWYQQKPGQPPKLLIYAASYLASGVPSRFKGSGSGTEFTLNIHPVEEEDAATYYCQQGYTRTDIDNTFGGGTKLEIK VH: QVQLKESGPGLVAPSQSLSITCTVSGIDLSTWRMNWVRQPPGKGLEWIGIIGTGGRTYYANWAKGRFSISKDSTQVFLKMNSLQTEDTATYFCARLGANNNGYPLDLWGAGTTVTVSS", "values": [{"measurement": "IC50, cellular Tau aggregation assay", "result": 8, "unit": "nM"}, {"measurement": "Imax (maximal efficacy at 300 nM), cellular Tau aggregation assay", "result": 62, "unit": "%"}]}]}
